Test results taken from patent publication US20120282183A1.

Key:
[1] = biological target: murine CXCR4 on mouse ES cells and mouse embryo fibroblasts (mouse) (UniProt P70658); assay: cell-based or functional assay
[2] = biological target: murine CXCR6 on differentiated WT ES cells (mouse) (UniProt Q9EQ16); assay: cell-based or functional assay
Sequence of murine CXCR6 on differentiated WT ES cells (mouse) (Q9EQ16 whole entry): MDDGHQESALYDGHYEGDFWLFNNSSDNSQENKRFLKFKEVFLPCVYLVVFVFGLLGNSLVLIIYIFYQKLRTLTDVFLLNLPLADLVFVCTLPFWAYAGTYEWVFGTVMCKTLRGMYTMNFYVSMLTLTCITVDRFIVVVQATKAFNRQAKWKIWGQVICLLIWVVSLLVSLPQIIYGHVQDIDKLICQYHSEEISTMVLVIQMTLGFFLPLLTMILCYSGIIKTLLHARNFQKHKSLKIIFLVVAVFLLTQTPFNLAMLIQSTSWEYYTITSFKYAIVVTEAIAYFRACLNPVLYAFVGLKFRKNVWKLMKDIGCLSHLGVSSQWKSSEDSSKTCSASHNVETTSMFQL

Sequence of murine CXCR4 on mouse ES cells and mouse embryo fibroblasts (mouse) (P70658 whole entry): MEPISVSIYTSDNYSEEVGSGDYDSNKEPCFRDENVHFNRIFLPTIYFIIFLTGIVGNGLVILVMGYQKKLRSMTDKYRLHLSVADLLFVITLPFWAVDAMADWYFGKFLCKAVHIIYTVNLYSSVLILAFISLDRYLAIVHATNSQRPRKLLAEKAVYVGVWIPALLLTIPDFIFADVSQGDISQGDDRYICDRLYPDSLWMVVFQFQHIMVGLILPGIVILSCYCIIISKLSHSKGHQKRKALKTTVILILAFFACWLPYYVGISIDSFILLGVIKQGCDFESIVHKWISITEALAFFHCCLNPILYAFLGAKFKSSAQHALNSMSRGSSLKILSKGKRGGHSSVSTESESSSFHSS

Row | CXCL12 chemotaxis of differentiating WT-ES cells [1] [fold] | chemotaxis of differentiated WT ES cells towards CXCL16 [2] [fold] | Substance
1 | > 2 | – | chemokine CXCL12 (R&D systems) (ligand)
2 | – | 2 | chemokine CXCL16 (R&D) (ligand)
